Measured values taken from publication PMC10815852, “A Non-Functional Carbon Dioxide-Mediated Post-Translational Modification on Nucleoside Diphosphate Kinase of Arabidopsis thaliana” (International Journal of Molecular Sciences, 2024).
Changes are numbered by the printed parent chain. “And” between values parts separate entries of the source, which are not always exact repeats. Identical values can stand only once.

T1: AtNDK1 (Arabidopsis nucleoside diphosphate kinase 1) (Arabidopsis thaliana, UniProt P39207)
T1 construct: gene NDK1; full open reading frame in pGEX6P-1 (BamHI/EcoRI, synthetic), GST tag cut with PreScission protease, E. coli T7 Express, size exclusion purified, hexamer
T1 sequence (P39207 1-149): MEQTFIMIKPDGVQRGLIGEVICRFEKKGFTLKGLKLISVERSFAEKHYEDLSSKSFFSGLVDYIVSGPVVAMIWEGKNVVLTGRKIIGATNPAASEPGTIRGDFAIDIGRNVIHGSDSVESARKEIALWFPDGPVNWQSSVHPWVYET

B1: Arabidopsis thaliana nucleoside diphosphate kinase 1 (AtNDK1), wild-type (enzyme, UniProt P39207 1-149, looked up)
chain: T1 sequence (P39207 1-149)
notes: Arabidopsis thaliana NDK1, open reading frame cloned into BamHI/EcoRI of pGEX6P-1; Hexamer by analytical SEC; also called WT AtNDK1; Arabidopsis NDK1; source: E. coli T7 express, purified (GSTrap, PreScission cleavage, glutathione agarose, SEC); not shown: GST, N-terminal, cleaved
B2: AtNDK1-K9R (enzyme, Arabidopsis thaliana, UniProt P39207 1-149, looked up)
chain: T1 sequence (P39207 1-149) with K9R
notes: Arabidopsis thaliana NDK1, mutant open reading frame cloned into BamHI/EcoRI of pGEX6P-1; Elutes as a mix of hexamer and dimer by analytical SEC; source: E. coli T7 express, purified (GSTrap, PreScission cleavage, glutathione agarose, SEC); not shown: GST, N-terminal, cleaved
B3: AtNDK1-K9E (enzyme, Arabidopsis thaliana, UniProt P39207 1-149, looked up)
chain: T1 sequence (P39207 1-149) with K9E
notes: Arabidopsis thaliana NDK1, mutant open reading frame cloned into BamHI/EcoRI of pGEX6P-1; Elutes as a mix of hexamer and dimer by analytical SEC, dimer peak the larger; source: E. coli T7 express, purified (GSTrap, PreScission cleavage, glutathione agarose, SEC); not shown: GST, N-terminal, cleaved
B4: AtNDK1-K9A (enzyme, Arabidopsis thaliana, UniProt P39207 1-149, looked up)
chain: T1 sequence (P39207 1-149) with K9A
notes: as for B2

How the values were obtained:
[1] = target: T1, AtNDK1 (Arabidopsis nucleoside diphosphate kinase 1); test: NDK assay, ATP formation by ATP determination kit; assay type: biochemical
[2] = target: T1, AtNDK1 (Arabidopsis nucleoside diphosphate kinase 1); test: NDK assay, ATP formation by ATP determination kit; assay type: biochemical; settings: substrate inhibition by ADP (fit of Michaelis-Menten data with 0-100 μM ADP); 50 μM GTP; 2 mM MgCl2, pH 7.6, 25 °C
[3] = substrate: Nc1ncnc2c1ncn2[C@@H]1O[C@H](COP(=O)(O)OP(=O)(O)O)[C@@H](O)[C@H]1O; test: NDK assay, ATP formation by ATP determination kit; assay type: biochemical, Arabidopsis thaliana; settings: 50 μM GTP fixed, 0-100 μM ADP, substrate inhibition model, 2 mM MgCl2, pH 7.6, 25 °C
[4] = substrate: Nc1nc2c(ncn2[C@@H]2O[C@H](COP(=O)(O)OP(=O)(O)OP(=O)(O)O)[C@@H](O)[C@H]2O)c(=O)[nH]1; test: NDK assay, ATP formation by ATP determination kit; assay type: biochemical, Arabidopsis thaliana; settings: 35 μM ADP fixed, 0-100 μM GTP, 2 mM MgCl2, pH 7.6, 25 °C
[5] = target: the molecule itself; test: SEC; analytical SEC, Superose 6 increase 10/300 GL; 30 mM Tris pH 7.9, 200 mM NaCl, 1 mM DTT, 1 mM EDTA; sample ~1 mg/mL, 100 uL injected; size and oligomeric state approximated from retention volume and a standard curve; self-association (hexamer, dimer)
[6] = target: the molecule itself; test: as above; remark: listed apart in the source

Row | IC50 [1] [nM] | Ki [2] [nM] | Molecule | Km [3] [µM] | Km [4] [µM] | stoichiometry N [5] | relative absorbance maximum of the (AtNDK1)2 peak [6] | relative absorbance maximum of the (AtNDK1)6 peak [6]
1 | 681 | – | Nc1nc2c(ncn2[C@@H]2O[C@H](COP(=O)(O)OP(=O)(O)OP(O)(O)=S)[C@@H](O)[C@H]2O)c(=O)[nH]1 [GTPγS, guanosine 5′-O-[γ-thio] triphosphate] | – | – | – | – | –
2 | – | 132000 | Nc1ncnc2c1ncn2[C@@H]1O[C@H](COP(=O)(O)OP(=O)(O)O)[C@@H](O)[C@H]1O [ADP] | – | – | – | – | –
3 | – | – | B1 | 24.6 | 22.4 | 6 | 0.1 | 1
4 | – | – | B2 | – | – | 6 and 2 | 0.25 | 1
5 | – | – | B3 | – | – | 6 and 2 | 1 | 0.4
6 | – | – | B4 | – | – | 6 and 2 | 0.73 | 1
